Reference: publication PMC10182041 (2023)
Where no end group is shown, it is not given here.

Tests used:
[1] = target: T1, Msi3, the sole Hsp110 of Candida albicans (Candida albicans, UniProt Q96VB9 1-701); test: FP
T1 chain: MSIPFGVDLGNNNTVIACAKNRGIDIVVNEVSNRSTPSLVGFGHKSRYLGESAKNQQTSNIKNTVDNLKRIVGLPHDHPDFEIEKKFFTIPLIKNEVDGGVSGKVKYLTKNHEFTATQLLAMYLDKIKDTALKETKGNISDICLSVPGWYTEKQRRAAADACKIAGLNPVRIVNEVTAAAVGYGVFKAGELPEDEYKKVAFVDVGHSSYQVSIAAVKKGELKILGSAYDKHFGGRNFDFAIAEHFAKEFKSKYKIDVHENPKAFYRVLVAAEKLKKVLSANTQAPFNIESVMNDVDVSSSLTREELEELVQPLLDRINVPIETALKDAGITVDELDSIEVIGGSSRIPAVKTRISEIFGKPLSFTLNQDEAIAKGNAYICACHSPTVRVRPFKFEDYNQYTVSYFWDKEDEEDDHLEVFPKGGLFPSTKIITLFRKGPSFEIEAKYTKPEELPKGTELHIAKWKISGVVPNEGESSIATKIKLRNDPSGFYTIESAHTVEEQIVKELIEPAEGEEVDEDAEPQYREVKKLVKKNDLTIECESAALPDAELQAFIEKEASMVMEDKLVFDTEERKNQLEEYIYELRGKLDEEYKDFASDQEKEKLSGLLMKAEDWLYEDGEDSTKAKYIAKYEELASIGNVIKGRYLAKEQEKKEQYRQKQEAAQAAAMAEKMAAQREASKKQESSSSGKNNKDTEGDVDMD

[2] = target: T1, Msi3, the sole Hsp110 of Candida …; test: FP; +2H (100 µM)

fluorescein-VYDFFVWL [TRP2-181 peptide labeled with a fluorescein at the N-terminus]
Kd [1]: 650 nM
Kd [2]: 5.45 µM
